Test [1] addresses T1, hsNbs1(384) (Homo sapiens, UniProt O60934).
T1 construct: The N-terminal 384 residues of homo sapiens Nbs1 (hsNbs1(384) containing the FHA-BRCT1-BRCT2 domains); made in house; host or cells: E. coli BL21(DE3) pLacI
T1 sequence (O60934 1-384): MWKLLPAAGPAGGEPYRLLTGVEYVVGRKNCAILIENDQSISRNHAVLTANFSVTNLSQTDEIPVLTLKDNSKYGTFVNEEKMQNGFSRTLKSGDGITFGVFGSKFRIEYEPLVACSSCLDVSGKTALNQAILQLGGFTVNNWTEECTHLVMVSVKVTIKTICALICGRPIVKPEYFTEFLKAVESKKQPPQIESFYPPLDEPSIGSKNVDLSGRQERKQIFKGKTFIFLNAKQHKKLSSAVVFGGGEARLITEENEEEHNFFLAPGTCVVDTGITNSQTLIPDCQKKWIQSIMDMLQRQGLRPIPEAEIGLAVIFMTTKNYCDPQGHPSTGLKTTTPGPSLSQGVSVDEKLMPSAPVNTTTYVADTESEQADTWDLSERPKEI
The test can be described thus: Fluorescence polarization (FP) binding of FITC-labeled phosphopeptides to hsNbs1(384). Particulars: wild-type hsNbs1(384); for binding to Nbs1(384), in words: FP assay. The protocol: Figure 4 Binding of FITC-labeled peptides to hsNbs1(384). Solid lines with filled data markers show normalized fluorescence polarization of the following peptides (see Table 1 for peptide sequences) as a function of the concentration of hsNbs1(384) corresponding to: CtIP-pS347 (gray); CtIP-pT847 (blue); FANCJ (green); CtIP-859 (orange); ChK2-pT68 (yellow). FP studies were performed at room temperature in 25 mM HEPES (pH 7.4), 150 mM NaCl, 1 mM EDTA, 2 mM DTT, 0.05% Tween20, 0.1% BSA after a 15-min incubation period. The data points were fit to a single-site non-cooperative model.
Phosphopeptide-protein interactions were measured by a fluorescence polarization (FP) assay. 100 nM FITC-labeled phosphopeptides were incubated at room temperature for 15 min with the indicated concentrations of hsNbs1(384) in FP buffer composed of 25 mM HEPES, 150 mM NaCl, 1 mM EDTA, 2 mM DTT, 0.05% Tween20, 0.1% BSA, pH 7.4 prior to the measurement of fluorescence polarization (POLARstar Omega microplate reader, BMG Labtech). All samples were prepared in a 96-well black flat-bottomed polypropylene microplate and each well contained 50 µL. Each well was recorded by 100 flashes with an excitation wavelength of 485 nm, and detection of emission at 520 nm. Data for the interaction of a phosphopeptide with hsNbs1(384) were analyzed using non-linear fitting with a one-site total binding model. All Kd values were determined in triplicate, and reported as mean ± standard deviation. All phosphopeptides used were synthesized by GenScript.
Background: In fluorescence polarisation assays a small probe gives low polarisation when free and higher when bound to something large.

In test [2] the target is T2, hsNbs1(384), the N-terminal 384 residues of homo sapiens Nbs1 containing the FHA-BRCT1-BRCT2 domains (human, UniProt O60934 1-384).
T2 construct: gene optimised for E. coli, cloned into pET30a (NdeI/HindIII); also called wt; source: E. coli BL21(DE3) pLacI, purified (Ni-NTA, HiTrap Q, Superdex 75)
T2 sequence (looked up): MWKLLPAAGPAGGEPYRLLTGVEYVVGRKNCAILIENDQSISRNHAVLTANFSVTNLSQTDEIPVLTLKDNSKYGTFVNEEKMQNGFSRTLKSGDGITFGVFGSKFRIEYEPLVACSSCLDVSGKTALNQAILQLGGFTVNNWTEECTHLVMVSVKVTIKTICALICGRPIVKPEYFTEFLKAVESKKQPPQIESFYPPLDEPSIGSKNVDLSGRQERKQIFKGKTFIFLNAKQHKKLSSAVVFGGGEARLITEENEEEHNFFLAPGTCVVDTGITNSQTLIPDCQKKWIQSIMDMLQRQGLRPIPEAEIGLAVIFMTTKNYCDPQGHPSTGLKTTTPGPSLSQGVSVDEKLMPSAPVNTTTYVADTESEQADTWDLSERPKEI
Kind of test: fluorescence polarisation; 100 nM FITC-labeled phosphopeptide with increasing hsNbs1(384); room temperature, 15 min incubation; 25 mM HEPES pH 7.4, 150 mM NaCl, 1 mM EDTA, 2 mM DTT, 0.05% Tween20, 0.1% BSA; one-site model. Particulars: both partners purified.

In test [3] the target is T3, hsNbs1(384)(R28S,K29S,R43A) triple mutant (human, UniProt O60934 1-384, R28S | K29S | R43A).
T3 construct: source: E. coli BL21(DE3) pLacI, purified as the wild type
T3 sequence (looked up): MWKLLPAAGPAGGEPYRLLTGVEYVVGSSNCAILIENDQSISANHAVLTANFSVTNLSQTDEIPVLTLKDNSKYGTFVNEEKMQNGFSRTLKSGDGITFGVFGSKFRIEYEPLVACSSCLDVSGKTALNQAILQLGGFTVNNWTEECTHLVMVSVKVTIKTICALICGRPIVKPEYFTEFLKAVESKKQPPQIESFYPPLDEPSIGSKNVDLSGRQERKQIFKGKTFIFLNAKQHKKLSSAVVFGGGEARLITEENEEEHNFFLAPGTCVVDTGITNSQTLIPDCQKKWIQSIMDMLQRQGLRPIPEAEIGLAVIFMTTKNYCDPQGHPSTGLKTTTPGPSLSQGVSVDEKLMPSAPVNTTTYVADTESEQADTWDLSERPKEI
Described as above. Particulars: both partners purified.

Square brackets hold non-standard residues; d marks the D form. Primed or numbered codes have the meaning given here. Ends that are not written are not given here. Peptide text beside a SMILES is read from it. FITC′ = fluorescein isothiocyanate label; pT = C[C@@H](OP(=O)(O)O)[C@H](N)C(=O)O; pS = N[C@@H](COP(=O)(O)O)C(=O)O

Turning to “DPYAG(pSpT)DENTDSEEHQE [XRCC1 pS518,pT519, FITC-labeled XRCC1 phosphopeptide with consecutively phosphorylated pSer518-pThr519]”, in test [1], the “binding to Nbs1(384), in words” value is “no interaction”.
The same measure, in the same setting: the result for “TRVS[pS]PVFGAT [CtIP pS327, FITC-labeled CtIP pSer327 peptide that targets the tandem BRCA1 BRCT domains]” reads “does not bind”.
As to `CC(C)C[C@H](NC(=O)[C@H](CCC(=O)O)NC(=O)[C@H](CC(=O)O)NC(=O)[C@H](CCC(=O)O)NC(=O)[C@@H](NC(=O)[C@H](CC(=O)O)NC(=O)CNC(=O)[C@H](COP(=O)(O)O)NC(=O)[C@H](CC(=O)O)NC(=O)[C@H](CCC(=O)O)NC(=O)[C@H](C)NC(=O)CNC(=O)[C@H](CC(N)=O)NC(=O)[C@H](CC(=O)O)NC(=O)[C@H](CCC(N)=O)NC(=O)CNC(=O)[C@H](CCC(=O)O)NC(=O)[C@H](CO)NC(=O)[C@H](CCC(N)=O)NC(=O)[C@@H](NC(=O)CNC(=O)[C@@H](N)CCC(=O)O)C(C)C)[C@@H](C)OP(=O)(O)O)C(=O)N[C@@H](CCCNC(=N)N)C(=O)O` (H-EGVQSEGQDNGAED[pS]GD[pT]EDELR-OH), the “difference in Kd between N-terminal and C-terminal fluorescein-tagged XRCC1 pS485,pT488 peptides” value in test [1] (FP, Kd 35 µM vs 4.5 µM) was “eightfold”.

B1: Chk2 pT68 phosphopeptide SLETVS(pT)QELYSIPED with C-terminal K/FITC (peptide)
peptide: SLETVS[pT]QELYSIPEDK(FITC′)
notes: Checkpoint 2 kinase (Chk2), stretch around pT68; added C-terminal lysine that carries FITC (footnote b: C-terminal K/FITC); source: synthetic peptide (GenScript)
Turning to B1, binding in test [2] was characterised by a dissociation constant (Kd) of 98.7 µM.

B2: CtIP pT312,pT315 phosphopeptide TEDSLRFSDS(pT)SK(pT)PPQEELP with C-terminal K/FITC (peptide)
peptide: TEDSLRFSDS[pT]SK[pT]PPQEELPK(FITC′)
notes: CtIP, human, stretch around pT312 and pT315; added C-terminal lysine that carries FITC (footnote b: C-terminal K/FITC); also called test peptide containing the pThr312-Ser-Lys-pThr315; source: synthetic peptide (GenScript)
On to B2, for which the affinity in test [2], expressed as Kd, was 90 µM.

B3: FANCJ pT1133 phosphopeptide EDESIYF(pT)PELYDPEIE with C-terminal K/FITC (peptide)
peptide: EDESIYF[pT]PELYDPEIEK(FITC′)
notes: FANCJ helicase, stretch around pT1133; added C-terminal lysine that carries FITC (footnote b: C-terminal K/FITC); A shorter FANCJ phosphopeptide (SIYFpTPELYD) stands in the cited TopBP1 BRCT7/8 structure PDB 3AL3; also called FANCJ pThr1133 phosphopeptide; FANCJ phosphopeptide; source: synthetic peptide (GenScript)
B3: the Kd (as a rule, the equilibrium constant for the complex coming apart) in test [2] came out at 26.9 µM.

B4: CtIP pT859 phosphopeptide WEVGFPS(pT)QTCMERGYI with C-terminal K/FITC (peptide)
peptide: WEVGFPS[pT]QTCMERGYIK(FITC′)
notes: CtIP, human, stretch around pT859; added C-terminal lysine that carries FITC (footnote b: C-terminal K/FITC); also called CtIP-859; source: synthetic peptide (GenScript)
B4: the affinity in test [2], expressed as Kd, was 90.5 µM.

B5: MDC1 pS329,pT331 phosphopeptide FITC-GG-FID(pS)D(pT)DAEEE (peptide)
peptide: {FITC′}-GGFID[pS]D[pT]DAEEE
notes: Gly-Gly between the N-terminal FITC and the peptide; MDC1, human, stretch around pS329 and pT331; also called hsMDC1; source: synthetic peptide (GenScript)
Regarding B5, the Kd in test [3] was 1.47 µM; in test [2], 0.65 µM.

B6: XRCC1 pS518,pT519 phosphopeptide FITC-GG-DPYAG(pSpT)DENTDSEEHQE (peptide)
peptide: {FITC′}-GGDPYAG[pS][pT]DENTDSEEHQE
notes: Gly-Gly between the N-terminal FITC and the peptide; XRCC1, human, stretch around pS518 and pT519; also called XRCC1 pSer518-pThr519 phosphopeptide; source: synthetic peptide (GenScript)
Turning to B6, the Kd in test [2] is over 65 µM.

B7: CtIP pS347 phosphopeptide GLDLNTSL(pS)PSLLQPGKKK with C-terminal K/FITC (peptide)
peptide: GLDLNTSL[pS]PSLLQPGKKKK(FITC′)
notes: CtIP, human, stretch around pS347; added C-terminal lysine that carries FITC (footnote b: C-terminal K/FITC); also called CtIP pSer347 peptide; pSer347 peptide; source: synthetic peptide (GenScript)
With B7, the Kd in test [2] was 2.64 µM.

B8: CtIP pT847 phosphopeptide FITC-GG-RYIPPN(pT)PENFWEVG (peptide)
peptide: {FITC′}-GGRYIPPN[pT]PENFWEVG
notes: Gly-Gly between the N-terminal FITC and the peptide; CtIP, human, stretch around pT847; source: synthetic peptide (GenScript)
B8 showed a Kd in test [2] of 22 µM.

B9: XRCC1 pS485,pT488 phosphopeptide FITC-GG-DNGAED(pS)GD(pT)EDELR (peptide)
peptide: {FITC′}-GGDNGAED[pS]GD[pT]EDELR
notes: Gly-Gly between the N-terminal FITC and the peptide; XRCC1, human, stretch around pS485 and pT488; also called XRCC1 pSer485-Gly-Asp-pThr488 peptide with an N-terminal fluorescein tag; source: synthetic peptide (GenScript)
As to B9, binding in test [2] was put at a Kd of 34.8 µM.

B10: XRCC1 pS485,pT488 phosphopeptide EGVQSEGQDNGAED(pS)GD(pT)EDELR with C-terminal K/FITC (peptide)
peptide: EGVQSEGQDNGAED[pS]GD[pT]EDELRK(FITC′)
notes: XRCC1, human, stretch around pS485 and pT488; added C-terminal lysine that carries FITC (footnote b: C-terminal K/FITC); also called XRCC1 pSer485-Gly-Asp-pThr488 peptide containing a C-terminal fluorescein; source: synthetic peptide (GenScript)
Consider B10, for which, in test [2], the Kd came out at 4.5 µM.

B11: hsMDC1 phosphopeptide FITC-GG-PFGFID(pS)D(pT)DVEEER (peptide)
peptide: {FITC′}-GGPFGFID[pS]D[pT]DVEEER
notes: Gly-Gly between the N-terminal FITC and the peptide; MDC1, human, one of the SDT repeats; also called second test peptide containing the pSer-Asp-pThr motif; source: synthetic peptide (GenScript)
In turn, B11 yielded a Kd in test [3] of 1.6 µM.

The record behind these values is paper PMC8079451, “Phosphopeptide interactions of the Nbs1 N-terminal FHA-BRCT1/2 domains” (Scientific Reports, 2021).
